From the RNAGym collection of RNA variant scans (doi:10.7554/elife.80360)

B1: HDV Ribozyme (parent)
chain: GGCCGGCAUGGUCCCAGCCUCCUCGCUGGCGCCGGCUGGGCAACAUUCCGAGGGGACCGUCCCCUCGGUAAUGGCGAAUGGGACCCA

Variants of: B1
Assay: self-cleavage, relative activity (ratio to wild type); higher = more cleavage; co-transcriptional

Variant | self-cleavage
GGCCGGCAUGAUCCCAGCCUCCUCGCUGGCGCCGGCUGGGCAACAUUCCGCGGGGACCGUCCCCUCGGUAAUGGCGAAUGGGACCCA [G11A A51C] | 0.665
GGCCGGCAUUGUCCCAGCAUCCUCGCUGGCGCCGGCUGGGCAACAUUCCGAGGGGACCGUCCCCUCGGUAAUGGCGAAUGGGACCCA [G10U C19A] | 0.0946
GGCCGGCAUUGUCCCAGCCUCCUCACUGGCGCCGGCUGGGCAACAUUCCGAGGGGACCGUCCCCUCGGUAAUGGCGAAUGGGACCCA [G10U G25A] | 0.114
GGCCGGCAUUGUCCCAGCCUCCUCGCUGGCUCCGGCUGGGCAACAUUCCGAGGGGACCGUCCCCUCGGUAAUGGCGAAUGGGACCCA [G10U G31U] | 0.181
GGCCGGCAUUGUCCCAGCCUCCUCGCUGGCGCCGGCUGGGCAACAUUCCGAGGGGACCGUCCCCUCGGUAUUGGCGAAUGGGACCCA [G10U A71U] | 0.639
GGCCGGCAUUGUCCCAGCCUCCUCGCUGGCGCCGGCUGGGCAACAUUCCGAGGGGACCGUCCCCUCGGUAGUGGCGAAUGGGACCCA [G10U A71G] | 0.799
GGCCGGCAUUGUCCCAGCCUCCUCGCUGGCGUCGGCUGGGCAACAUUCCGAGGGGACCGUCCCCUCGGUAAUGGCGAAUGGGACCCA [G10U C32U] | 0.546
GGCCGGCAUUGUCUCAGCCUCCUCGCUGGCGCCGGCUGGGCAACAUUCCGAGGGGACCGUCCCCUCGGUAAUGGCGAAUGGGACCCA [G10U C14U] | 0.672
GGCCGGCAUUGUCCCAGCCUCCUCGCUGGCGCCGGCUGGGCAACAUUCCGAGGGGACGGUCCCCUCGGUAAUGGCGAAUGGGACCCA [G10U C58G] | 0.793
GGCCGGCAUUGUCCCAGCCUCCUCGCUGGCGCCGGCUGGGCAACAUUCCGAGGGGACCGGCCCCUCGGUAAUGGCGAAUGGGACCCA [G10U U60G] | 0.724
GGCCGGCAUUGUCCCAGCCUCCUCGCUGGCGCCGGCUGGGCAACAUUCCGAGGGGACCGCCCCCUCGGUAAUGGCGAAUGGGACCCA [G10U U60C] | 0.767
GGCCGGCAUUGUCCCAGCCUCCUCGCUGGCGCCGGCUGGGCAACAUUCCGAGGGGACCGUCCCCUCGGAAAUGGCGAAUGGGACCCA [G10U U69A] | 0.813
GGCCGGCAUUGUCCCAGCCUCCUCGCUGGCGCCGGCUGGGCAACAUUCCGAGGGGACCGUCCCCUCGGUAAUGGCGAAUGGCACCCA [G10U G82C] | 0.089
GGCCGGCAUUGUCCCAGCCUCCUCGCUGGCGCCGGCUGGGCAACAUUCCGAGGGGACCGUCCCCUCGGUAAUGGCGAAUGGUACCCA [G10U G82U] | 0.248
GGCCGGCAUUGUCCCAGCCUCCUCGCUGGCGCCGGCUGGGCAACAUUCCGAGGGGACCGUCCCCUCGGUAAUGGCAAAUGGGACCCA [G10U G76A] | 0.652
GGCCGGCAUUGUCCCAGCCUCCUCGCUGGCGCCGGCUGGGCAACAUUCCGAGGGGACCGUCCCCUCGGUAAUGGCCAAUGGGACCCA [G10U G76C] | 0.963
GGCCGGCAUUGUCCCAGCCUCCUCGCUGGCGCCGGCUGGGCAACAUGCCGAGGGGACCGUCCCCUCGGUAAUGGCGAAUGGGACCCA [G10U U47G] | 0.63
GGCCGGCAUUGUCCCAGCCUCCUCGCUGGCGCCGGCUGAGCAACAUUCCGAGGGGACCGUCCCCUCGGUAAUGGCGAAUGGGACCCA [G10U G39A] | 0.199
GGCCGGCAUUGUCCCAGCCUCCUCGCUGGCGCCGGCUGUGCAACAUUCCGAGGGGACCGUCCCCUCGGUAAUGGCGAAUGGGACCCA [G10U G39U] | 0.346
GGCCGGCAUUGUCCCAGCCUCCUCGCUGGCGCCGGCUGGACAACAUUCCGAGGGGACCGUCCCCUCGGUAAUGGCGAAUGGGACCCA [G10U G40A] | 0.745
GGCCGGCAUUGUCCCAGCCUCCUCGCUGGCGCCGGCUGGGCAACAUUCCGAGGGGAGCGUCCCCUCGGUAAUGGCGAAUGGGACCCA [G10U C57G] | 0.587
GGCCGGCAUGAUCCCAGCCUCCUCGCUGGCGCCGGCUGGGCAACAUUCCGAGGGGACCGUCCCCUCGGUGAUGGCGAAUGGGACCCA [G11A A70G] | 0.365

Variant | self-cleavage
GGCCGGCAUUGUCCCAGCCUCCUCGCUGGCGCCGGCUGGGCAACAUUCCGAGGGGCCCGUCCCCUCGGUAAUGGCGAAUGGGACCCA [G10U A56C] | 0.878
GGCCGGCAUUGUCCCAGCCUCCUCGCUGGCGCCGGCUGGGCAACAUUCCGAGGGGACCGUCCCCUCGGUAAUGGUGAAUGGGACCCA [G10U C75U] | 0.0678
GGCCGGCAUUGUCCCAGCCUCCUCGCUGGCGCCGGCUGGGCAACAUUCCGAGGGGACCGUUCCCUCGGUAAUGGCGAAUGGGACCCA [G10U C61U] | 0.684
GGCCGGCAUGAUCCCUGCCUCCUCGCUGGCGCCGGCUGGGCAACAUUCCGAGGGGACCGUCCCCUCGGUAAUGGCGAAUGGGACCCA [G11A A16U] | 0.723
GGCCGGCAUUGUCCCAGCCUCCUCGCUGGCGCCGGCUGGGCAACAUUCCGAGGGGACCGUCCCCCCGGUAAUGGCGAAUGGGACCCA [G10U U65C] | 0.831
GGCCGGCAUGAUCCCAGCCUCCUCGCUGGCGCCGGCUGGGCCACAUUCCGAGGGGACCGUCCCCUCGGUAAUGGCGAAUGGGACCCA [G11A A42C] | 0.101
GGCCGGCAUGAUCCCAGCCUCCUCGCUGGCGCCGGCUGGGCGACAUUCCGAGGGGACCGUCCCCUCGGUAAUGGCGAAUGGGACCCA [G11A A42G] | 0.0692
GGCCGGCAUGAUCCCAGCCUCCUCGCUGGCGCCGGCUGGGCAGCAUUCCGAGGGGACCGUCCCCUCGGUAAUGGCGAAUGGGACCCA [G11A A43G] | 0.0791
GGCCGGCAUUGUCCCAGCCUCCUCGCUGGCGCCGGCUGGGCAACAUUCCGAGGGGACCGUCCCCUCGGUAAUGGCGAAAGGGACCCA [G10U U79A] | 0.352
GGCCGGCAUUGUCCCAGCCUCCUCGCUGGCGCCGGCUGGGCAACAUUCCGAGGGGACCGUCCCCUCGGUGAUGGCGAAUGGGACCCA [G10U A70G] | 0.858
GGCCGGCAUGAUCCCAGCCUCCUCGCUGGCGCCGGCUGGGCAACAUUCCGAGGGGCCCGUCCCCUCGGUAAUGGCGAAUGGGACCCA [G11A A56C] | 0.298
GGCCGGCAUUGUCCCAGCCUCCUCGCUGGCGCCGGCUGGGCAACAUUCCGAGGGGACCGUCCCCUCGGUAAUGGCGAAUGGGAACCA [G10U C84A] | 0.519
GGCCGGCAUUGUCCCAGCCUCCUCGCUGGCGCUGGCUGGGCAACAUUCCGAGGGGACCGUCCCCUCGGUAAUGGCGAAUGGGACCCA [G10U C33U] | 0.466
GGCCGGCAUUGUCCCAGCCUCCUCGCUGGCGCAGGCUGGGCAACAUUCCGAGGGGACCGUCCCCUCGGUAAUGGCGAAUGGGACCCA [G10U C33A] | 0.113
GGCCGGCAUUGUCCCAGCCUCCUCGCUGGCGCCGGCAGGGCAACAUUCCGAGGGGACCGUCCCCUCGGUAAUGGCGAAUGGGACCCA [G10U U37A] | 0.058
GGCCGGCAUUGUCCCAGCCUCCUCGCUGGCGCCGGCUUGGCAACAUUCCGAGGGGACCGUCCCCUCGGUAAUGGCGAAUGGGACCCA [G10U G38U] | 0.0625
GGCCGGCAUUGUCCCAGCCUCUUCGCUGGCGCCGGCUGGGCAACAUUCCGAGGGGACCGUCCCCUCGGUAAUGGCGAAUGGGACCCA [G10U C22U] | 0.188
GGCCGGCAUUGUCCCAGCCUCCUCGCUGGCGCCGGCUGGGCAACAUUCCGAGGGGACCGUCCCCUCGGUAAUGCCGAAUGGGACCCA [G10U G74C] | 0.138
GGCCGGCAUUGUCCCAGCCUCCUCGCUGGCGCCGGCUGGGCAACAUUACGAGGGGACCGUCCCCUCGGUAAUGGCGAAUGGGACCCA [G10U C48A] | 0.698
GGCCGGCAUUGUCCCAGCCUCCUCGCUGGCGCCGGCUGGGUAACAUUCCGAGGGGACCGUCCCCUCGGUAAUGGCGAAUGGGACCCA [G10U C41U] | 0.583
GGCCGGCAUUGUCCCAGCCUCCUCGCUGGCGCCGGCUGGGAAACAUUCCGAGGGGACCGUCCCCUCGGUAAUGGCGAAUGGGACCCA [G10U C41A] | 0.892
GGCCGGCAUUGUCCCAGCCUCCUCGCUGGCGCCGGCUGGGCAACAUUCCGAGGGGACCGUCCCCUCGGUAAUGGCGAAUGGGACCAA [G10U C86A] | 0.712

Variant | self-cleavage
GGCCGGCAUUGUCCCAGCCUCCUCGCUGGGGCCGGCUGGGCAACAUUCCGAGGGGACCGUCCCCUCGGUAAUGGCGAAUGGGACCCA [G10U C30G] | 0.0989
GGCCGGCAUUGUCCCAGCCUCCUCGCCGGCGCCGGCUGGGCAACAUUCCGAGGGGACCGUCCCCUCGGUAAUGGCGAAUGGGACCCA [G10U U27C] | 0.554
GGCCGGCAUUGUCCCAGCCCCCUCGCUGGCGCCGGCUGGGCAACAUUCCGAGGGGACCGUCCCCUCGGUAAUGGCGAAUGGGACCCA [G10U U20C] | 0
GGCCGGCAUUGUCCCAGCCUCCUCGCUGGCGCCGGCUGGGCAACAAUCCGAGGGGACCGUCCCCUCGGUAAUGGCGAAUGGGACCCA [G10U U46A] | 0.489
GGCCGGCAUUGUCCCAGCCUCCUCGCUGGCGCCGGCUGGGCAACAUUCCGAGGGGACCGUCCCCUCGGUAAUGGCGAAUGGGACUCA [G10U C85U] | 0.946
GGCCGGCAUUGUCCCAGCCUCCUCGCUGGCGCCGGCUGGGCAACAUUCCGAGGGGACCGUCCCCUCGGUAAAGGCGAAUGGGACCCA [G10U U72A] | 0.277
GGCCGGCAUUGUCCCAGCCUCCUCGCUGGCGCCGGCUGGGCAACAUUCCGAGGGCACCGUCCCCUCGGUAAUGGCGAAUGGGACCCA [G10U G55C] | 0.831
GGCCGGCAUUGUCCCAGCCUCCUCGAUGGCGCCGGCUGGGCAACAUUCCGAGGGGACCGUCCCCUCGGUAAUGGCGAAUGGGACCCA [G10U C26A] | 0.678
GGCCGGCAUUGUCCCAGCCUCCUCGCUGGCGCCGGCUGGGCAACAUUCCGACGGGACCGUCCCCUCGGUAAUGGCGAAUGGGACCCA [G10U G52C] | 0.639
GGCCGGCAUUGUCCCACCCUCCUCGCUGGCGCCGGCUGGGCAACAUUCCGAGGGGACCGUCCCCUCGGUAAUGGCGAAUGGGACCCA [G10U G17C] | 0.359
GGCCGGCAUUGUCCCAGCCUCCUCGCUGUCGCCGGCUGGGCAACAUUCCGAGGGGACCGUCCCCUCGGUAAUGGCGAAUGGGACCCA [G10U G29U] | 0.0475
GGCCGGCAUUGUCCCAGCCUCCUCGCUGGCGCCGGCUGGGCAACAUUCCGAGGGGACCGUCCCCUCGGUAAUCGCGAAUGGGACCCA [G10U G73C] | 0.0831
GGCCGGCAUUGUCCCAGCCUCCUCGCUGGCGCCGGCUGGGCAACAUUCCGAGGGGACCGUCCCCUCGGUAAUUGCGAAUGGGACCCA [G10U G73U] | 0.0639
GGCCGGCAUUGUCCCAGCCUCCUCGCUGGCGCCGGCUGGGCAACAUUCCGAGGCGACCGUCCCCUCGGUAAUGGCGAAUGGGACCCA [G10U G54C] | 0.831
GGCCGGCAUUGUCCCAGCCUCCUCGCUGGCGCCGGCUGGGCAACAUUCCUAGGGGACCGUCCCCUCGGUAAUGGCGAAUGGGACCCA [G10U G50U] | 0.796
GGCCGGCAUUGUCCCAGCCUCCUCGCUGGCGCCGGCUGGGCAACAUUCCGAGGGGACCGUCCCCUAGGUAAUGGCGAAUGGGACCCA [G10U C66A] | 0.895
GGCCGGCAUUGUCCCAGCCUCCUCGCUGGCGCCGGCUGGGCAACAUUCCGAGGGGACCGUCCCCUCGGUAAUGGCGAAUGGGCCCCA [G10U A83C] | 0.181
GGCCGGCAUUGUCCCAGCCUCCUCGCUGGCGCCGGCUGGGCAACAUUCCGAGGGGACCGUCCCCUCGGUAAUGGCGAAUGGGACCCG [G10U A87G] | 0.704
GGCCGGCAUUGUCCCAGCCUCCUCGCUGGCGCCGGCUGGGCAACAUUCCGAGGGGACCGUCCCCUCGGUAAUGGCGAAUGGGACCCU [G10U A87U] | 0.653
GGCCGGCAUUGUCCCAGCCUCCUCGCUGGCGCCGGCUGGGCAACAUUCCGAGGGGACCGUCCCCUCGGUAAUGGCGCAUGGGACCCA [G10U A77C] | 0.0396
